Reference: the supplement of paper PMC9170038

Test system: K4 kissing-loop RNA reporter
Assay: apparent KD of K4 kissing-loop reporter; higher = weaker reporter binding
Conditions: Eterna round: R107
Method: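 RNA-MaP round R107: designed RNA switches with theophylline, tryptophan, arginine or FMN aptamers are transcribed on-chip within common flanks. They are titrated with a labelled K4 kissing-loop RNA reporter in RNA-MaP buffer (100 mM Tris pH 7.5, 80 mM KCl, 4 mM MgCl2), without ligand or with the indicated ligand. Median apparent KD per design.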

[1] = input ligand: theophylline 20 uM
[2] = input ligand: tryptophan 2.4 mM
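Also: bound reporter read as fluorescence of individual clusters on recovered sequencing chips by microscopy, with normalized cluster intensities fitted with a binding model.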

| Sequence | apparent KD of K4 kissing-loop reporter (input ligand: FMN 200 uM) [nM] | apparent KD of K4 kissing-loop reporter (input ligand: arginine 13.2 mM) [nM] | apparent KD of K4 kissing-loop reporter (input ligand: none) [nM] | apparent KD of K4 kissing-loop reporter [1] [nM] | apparent KD of K4 kissing-loop reporter [2] [nM] |
| --- | --- | --- | --- | --- | --- |
| UGACUGGACUGAAGGAGCGGGCGAGACAAAGUCUCGAACUCCUAGUGAUGUUAGGAAAUAACCCAGGUAGGUCGCAGUCUAGUCU [ArgBS 7 #SwitchBubble #StaticStem #DoubleMagnet] | 149 | 104 | 128 | 136 | 137 |
| GCCUAGGCUCGAAAGAGCCUAGGCUGGGCUCAGGAUAUCCGGAAACGGAGAAGGGAGGGACUAGUGAUGUUAGGGAUUCCCUAUG | 461 | 264 | 290 | 251 | 203 |
| AAAAUAAAGGAGUGAUGUUCCAUAUGUGAUACCAGCCACGAAAGUGGCCCUUGGCAGCACUGCCAAGUGGACGAAAACGUCCACA [#OpenEnded 5 #StaticStem #K4Early] | 125 | 162 | 141 | 160 | 113 |
| AGCAGGAGUGAUGUUCCUGUGGCAUAAGUUCGAGGACCGGUACGGCCGCCACUCGUAACAUUAAUCCGUCCUUGAUCAGAUAAGA [theeternabot_sameState_KL_Trp_A_12] | 195 | 186 | 216 | 243 | 101 |
| AACUCUCAGGCACCUGAGUGAUGUUCAGGCCGAGGACCGGUACGGCCGCCACUCGGGCCUGAGAGAGGUUAUCAAAGAUAGCCAA [Omei KL Tryp A SS A v2] | 561 | 366 | 528 | 277 | 449 |
| AUGUAUGAAUUAGGAUAUCGUGAUCCAUGCAUAUAUAUGAUAAAUGGAUAUGUCGUAGUGAUGUUACGAGAAGGAGUGUGGAGUA [KL-XFMN-B1] | 62.6 | 71.5 | 64.3 | 93 | 45 |
| AAACAUAAGUCUGAUACCAGCCUGGGAGAAGUGAUGUUUCUCGGUGCAUAACGCCUAUAAGGCCCUUGGCAGCAGCAUGCGCUUC [theeternabot_sameState_KL_Theo_B_10] | 547 | 485 | 569 | 471 | 516 |
| CCUAUCUCAUACGAUACCAGUGAAUUUAUAUUUAUUAGCAGUGAUGUUGCAUUCCAAGUACACCCUUGGCAGCGUAUGGGAUAGG [Ex Theophylline B K4 22] | 147 | 204 | 178 | 172 | 140 |
| AUUAUAUAAUGGAGUGAUGUUCCAUCAGAUACCAGUGAAUUUGAACACCCUUGGCAGCUGUUGUUCAAAUAAUUUAAAUCCUUUA [JR_SSTheophyA_Sub019] | 129 | 150 | 132 | 166 | 103 |
| CUUAGGAGUGGUGUUGAUUAGGGAGCGGAAGGAGCGCCAAUGAUGGCAGGUAGGUCGCCGGAAUGUAGUGAUGUUGCAUAGAGGG [ExArgA.S] | 476 | 225 | 415 | 236 | 267 |
| UGUAUGUGAUUUGAUACCAGACCAGCUGGUGGUAUCUGAGUGAUGUUCAGGUAGGUUUGGGUCCCUUGGCAGCAAAUCGCAUACU [KL-SSTheoB26] | 168 | 118 | 153 | 150 | 147 |
| GCUCGGGAGUGAUGUUCCAAGUGGUGUUAACGAGGACCGGUACGGCCGCCACUCGAUACGGCCGGACCGUAGGAUAAACUGGAGC [Same State - Tryptophan A (Freestyle 12)] | 149 | 110 | 125 | 185 | 144 |
| UUGUUUGGUUGAGAGGUUGGGCGAGAUGAUACCAGUAGAGAAGAGUACCCUUGGCAGCAUAGGAGAGAUAUAGUGAUGUUGUAUG [SSTheophA.S] | 258 | 187 | 320 | 498 | 299 |
| GGUGCUGUCUGUGCCGCCCUCCUCGUUCCUCGAGGACCGGUACGGCCGCCACUCGAGUGAUGUUCGGGUAGCGAUCCCUGCUAGC [Bdazzled - #17 Exc. Tryptophan A] | 221 | 176 | 207 | 191 | 204 |
| GCCGUAGAUUGAAGGAGCGGUAUGGGCGUUGGCUGAGUGAUGUUCAGGAAAAGUGGCUUCUACCAGGUAGGUCGCAAUCUACGGC | 133 | 110 | 130 | 139 | 109 |
| AAUAAUAAUAAAUAUAGAUUGAUGAGGAAACGAGGACCGGUACGGCCGCCACUCGAGUGAUGUUCGAGAACCUCAUCAAUCAUAA [AK4.7 Exc Tryptophan A] | 171 | 132 | 166 | 154 | 382 |
| UAACUUGCAGUGAUGUUGCAAGAACUGGAUACCAGCAUGGAAACAUGCCCUUGGCAGCCAGAAGCUGGCUGCUUGUAAUGUCAGC [Design6] | 162 | 158 | 170 | 131 | 138 |
| ACGUGCACCAGUGAUGUUGGAAAAUAUGAAGGAGCGGGAGAAAACCCAGGUAGGUCGCAUAAUAGCACGAGCCACGAAAGUGGCA | 191 | 81.4 | 122 | 196 | 107 |
| UGUGUUGUGUAGUGUUAUGUUUUGAGGGAUACCAGAGUGUUUUUAUUCCCUUGGCAGCUUGAGUGAUGUUUGAUGUUGUUGUUGU [jlljmullin] | 297 | 178 | 218 | 219 | 184 |
| GGCGGCCGCGCGAAAGCGCGGCCGGCCGAUACCAGCGCGACGGCGCGCCCUUGGCAGCGGCGCCGAGUGAUGUUCGGCCUGCCGU [#2 Same State - Theophylline A Attempt #13 (HarryS)] | 126 | 122 | 117 | 145 | 116 |
| UUUACUCCGAGUGAUGUUCGGCGUAUCUGACGAGGACCGGUACGGCCGCCACUCGGUUCGACUACGAAGGCCUUGGCCACAGAUU | 268 | 174 | 257 | 284 | 285 |
